Here are results for 30 sequences from the nanobody polyreactivity screen of Harvey et al. (2022).

This data set can be described thus: yeast display, Sf9 membrane polyspecificity reagent, FACS + sequencing; frameworks hold sequencing errors. The method in brief: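 A synthetic nanobody library was expressed on Saccharomyces cerevisiae BJ5465 by galactose induction for 36–48 hours. The library was stained for 1 hour at 4 °C with 10% biotinylated, detergent-solubilized Sf9 membrane reagent and enriched with streptavidin microbeads before FACS. Low and high (top ~1%) gates were set on anti-HA fluorescence for expression and streptavidin fluorescence for reagent binding, and each polyreactivity label reflects the gate of origin.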
In the case of “QVQLVESGGGLVQAGGSLRLSCAASGLTFPYYAMGWYRQAPGKERELVATISWSSISTYYADSVKGRFTISRDNAKNTVYLQMNSLKPEDTAVYYCNARYSLRRGYDYWGQGTQVTVSS”, the “polyreactivity (PSR sort gate)” value was “low polyreactivity”. Regarding “QVQLVESGGGLVQAGGSLRLSCAASGSTFLPYAMGWYRQAPGKERELVAAIDWNGGRTYYADSVKGRFTISRDNAKNTVYLQMNSLKPEDTAVYYCAKLGRAAQGNYYWGQGTQVTVSS”, the “polyreactivity (PSR sort gate)” value is “high polyreactivity”.

Take “QVQLVESGGGLDQARGSLRLSCAASGFIFQIYAMGWYRQAPGKERELVAAITSRAGSTYYADSVKGRFTISRDNAKNTVYFQMNSLKPEDTAVYFCNKVFFLPTSRAYEYWGQGTQVTVSS”: the “polyreactivity (PSR sort gate)” value was “high polyreactivity”. With “QVQLVESGGGLVQAGGSLRLSCAASGIIFRWYAMGWYRQAPGKERELVAGITSTTGTTYYADSVKGRFTISRDNAKNTVYLQMNSLKPEDSAVYYCAADYYWYTTAGVVDSFEYWGQGTQVTVSS” the entry was “low polyreactivity”.

In the case of “QVQLVESGGGLVQAGGSLRLSCAASGRIFDYNGMGWYRQAPGKERELVAAIRLSDGSTYYADSVKGRFTISRDNAKNTVYLQMNSQKPEDTAVYYCADVGKNRSWYDYWGQGSQVTVSS”, the “polyreactivity (PSR sort gate)” value is “high polyreactivity”. For “QVQLVESGGGLVQAGGSLRLSCAASGIIFYKYAMGSYRQSPWKERELVAVISRGGGSTYYADSVKGRFTISRDNAKNTVYLQMNSLKPEDTAVYYFAADPRVTRSYTYDYWGQGTQVTVSS”, the “polyreactivity (PSR sort gate)” value is listed as “high polyreactivity”.

In the case of “QVQLVESGGGLVQAGGSLRLSCAASGRTFNSYAMGWYRQAPGKERELVAGITGTGGSTYYADSVKGRFTISRDNAKNTVYLQMNSLKPEDTAVYYCNALRRCQRYWDPYGYDYWGQGTQVTVSS”, the “polyreactivity (PSR sort gate)” value is “high polyreactivity”. Consider “QVQLVESGGGLVRAGGSLRLSCAASGSTFGENAMGWYRQAPGKERELVAAISDSGGDTYYADSVKGRFTISRDNAKNTVYLQMNSLKPEDTAVYYCAADRYGYWYAYYSWGQGTQVTVSS”, for which the “polyreactivity (PSR sort gate)” value was “low polyreactivity”.

Take “QVQLVESGGGIVQAGGSLRLICAASGLIFTLYAMGWSRQAPGKERQLVAVISSAGSTNYADSVKGRFTISRDTAKNTVYLQMNSLKPEETAVYYCNAEPTTPYWDYWAYEDDYWGQGTQVTVSS”: the “polyreactivity (PSR sort gate)” value is given as “low polyreactivity”.

As for “QVQLVESGGGLVQAGGSLRLSCAASGFTFDGYAMGWYRQAPGKERELVAAITRRGGRTYYADSVKGRFTISRDNAKNTVYLQMNSLKPEDTAVYFCAAERYGDRFYGAYDYWGQGTQVTVSS”, the “polyreactivity (PSR sort gate)” value is “high polyreactivity”. For “QVQLVESGGGLVQAGGSLRLSCAASGFTLGYNVMGWYRQAPGKERELVATICWNGARTYYADSVKGRFTISRDTAKNTVYLQMNSLKPEDTAVYYCAARRYYRGEYDYWGQGTQVTVSS”, the “polyreactivity (PSR sort gate)” value is listed as “low polyreactivity”. With “QVQLVESGGGLVQAGGSLRLSCAASGFILYYYAMGWYRQAPGKERELVAAISSGGNTDYADSVKGRFTISRDNAKNTVYLQMNSLKPEDTAVYYCAARGYHYSYLRGDTGYYYWGQGTQVTVSS”, the “polyreactivity (PSR sort gate)” value is recorded as “low polyreactivity”.

“QVQLVESGGGLVQAGGSLRLSCDASGRICGTNAMGWYRQAPGKERELVADITSGGSTNYADSVKGRFTISRDYAKNTVYVQMNSLKPEDTAVYYCAADVIGDLRWYRDEYWGQGTQVTVSS”: the “polyreactivity (PSR sort gate)” value is reported as “low polyreactivity”. For the sequence “QVQLVESGGGLVQAGGSLRLSCAASGIFLVYAMGWYRQAPGKERELVAAIRSDASTNYADSVKWRFTISRDNAKKTVYLQMNILKPEDSAVYYCNTAQLVSDEFDYWGQGTQVTVSS”, the “polyreactivity (PSR sort gate)” value is on record as “low polyreactivity”. Under “QVQLVESGGGLVQAGGSLRLSCAASGLIFRYYAMGWYRQAPGKERELVAAITWRGGRTYYADSVKGRFTISRDNAKNTVYLQMNSLKPEDTAVYYCNKDGPYQVITYDYWGQGTQVTVSS” stands “high polyreactivity”; under “QVQLVESGGGLVQAGGSLRLSCAASGSIFFKYAMGWYRQAPGKERELVASITRGGRTYYADSVKGRFTISRDNAKNTVYLQMNSLKPEDTAVYYCNKRTVWKHDYWGQGTQVTVSS”, “high polyreactivity”. For “QVQLVESGGGLVQAGGSLRLSCAASGITFAYYAMGWYRQAPGKERELVAAITRRGSSTYYADSVKGRFTISRDNAKNTVYLQMNSLKPEDTAVYYCAAVAYGRERYDYWGQGTQVTVSS”, the “polyreactivity (PSR sort gate)” value is reported as “high polyreactivity”. With “QVQLVESGGGLVQAGGSLRLSCAASGIRFAQYTMGGYRQAHGKESELVAAINRNGGSTYYADSVKGRFTISRDNAKNTVYLQMNSLKPEDTPVYYCNADALGFRYDYWGQGTQVTVSS”, the “polyreactivity (PSR sort gate)” value was “low polyreactivity”.

For “QVQLVESGGGLVQAGGILRLSCAASGSTMGYYPMGWYRQEPGKERELVAAIRYSDGNTYYADSVKGRFTISRDTAKNTVYLQMNSLKPEDTAVYYCAADGGYYGRDYWGQGTQVTVSS”, the “polyreactivity (PSR sort gate)” value is “high polyreactivity”.

Turning to “QVQLVESGGGLVQAGGSLRLSCAASGSIFGYNAMGWYRQAPGKEREFVAAITSGGSTYYADSVKGRFTISRDNAKNTVYLQMNSLKPEDTAVYYCRRRNVDSTRRYDYWGQGTQVTVSS”, the “polyreactivity (PSR sort gate)” value is recorded as “high polyreactivity”.

As for “QVQLVDSGGGLVQAGGSLRLSCPASGSTFQRYAMGWYRQAPGKERELVAAISSSGVRTYYADSVKGRFTISRDNAKNTVYLQMNSLKPEDTAVYYCATGYIFRYRQSAYDYWGQGTQVTVSS”, the “polyreactivity (PSR sort gate)” value is given as “high polyreactivity”.

Take “QVQLVESGGGLVQAGGSLRLSCAASGSTFVRYAMGWYRQAPGKERELVAAISKSGGSTYYADSVKGRFTISRDNAKNTVYLQMNSLKPEDTAVYYCNADVYKNSKFRIMGYWGQGTQVTVSS”: the “polyreactivity (PSR sort gate)” value is on record as “high polyreactivity”. Under “QVQHVESGGGLVQAGGSLRLSCAASGSIFYDYAMGWYRQAPGKERELVAAISKSDGSTYYADSVKGRFTISRDNAKNTVYLQMNSLKPEDTAVYYCNADLIYSYPPEYDYWGQGTQVTVSS” stands “high polyreactivity”; under “QVQLVESGGGLVQAGGSLRISCAASGRTFYGNAMGWYRQAPGKEREFFAAISASGGSTYYADSVKGRFTISRDNAKNTVYLQLNSLKPEDTSVYYCATDLGAFSVPYSPYDYWGLGTQVTVSS”, “low polyreactivity”. With “QVQLVDSGGGLVQAGGSLRLSCAASGSIFRYYAMGWYRQAPGKEREFVAAITYSGGSTHYADSVKGRFTISRDNEKNTVYLQMNSLKPEDTAVYYCAADYYWRVHYGYWGLGTQVTVSS” the entry was “high polyreactivity”; with “QVQLVESGGGLVQAGGSLRLSCAASGIIFRLNTMGWYRQAPGKEREFVAAITSGGSTHYADSVKGRFTISRDNAKNTVYLQMNSLKPEDTAVYYCAAGHRANYWAWHFYYPGDYWGQGTQVTVSS”, “low polyreactivity”. With “QVQLVESGGGLVQAGGSLRLSCAASGLIFGTYAMGWYRQAPGKERELVATINSSGGSTYYADSVKGRFTISRDNAKNTVYLQMNSLKPEDTAVYYCNTRRYDAYYDYDYWGQGTQVTVSS” the entry was “low polyreactivity”; with “QVQLVESGGGLVQAGGSLRLSCAASGYSFSPNAMGWYRQEPGKDRELVAAISSGVSTDYADSVKGRFSISRDNAKNTVYLQMNSLKPEDTAVYYCAADDQYRVTLGYVYWGQGTQVTVSS”, “low polyreactivity”. As for “QVQLVESGGGLVQAGGSLRLSCAASGFFFSHYAMGWYRQAPGKERVFVATISKRGGSTTYADSVKGRFTISRDNAKNTVYLQMNSLKPEDTAVYYCAATYYRFPSLIAYVRYDYWGQGTQVTVSS”, the “polyreactivity (PSR sort gate)” value is listed as “high polyreactivity”. Take “QVQLVESGGGLVQAGGSLRLSCAASGSTSGSNAMGWYRQAPGKERELVAGISYSTADTNYADSVKGRFTISRDNAKNTVYLQMNSLKPEDTAVYYCATDPFGIASRHDDYWGQGTQVTVSS”: the “polyreactivity (PSR sort gate)” value was “low polyreactivity”.
